Laboratory results: patent US20230064196A1

What was measured:
canine PD-1 (canine) [1] = experiment: flow cytometry; row 1*10^4; Anti-mouse IgGFc-Alexa Fluor 647(1:500)
human BTLA (human) [2] = target: human BTLA (human) (UniProt Q7Z6A9); experiment: as above
canine PD-1 (canine) [3] = experiment: flow cytometry; row 1*10^5; Anti-mouse IgGFc-Alexa Fluor 647(1:500)
human BTLA (human) [4] = target: human BTLA (human) (UniProt Q7Z6A9); experiment: as above
canine PD-1 (canine) [5] = experiment: flow cytometry; row 1*10^3; Anti-mouse IgGFc-Alexa Fluor 647(1:500)
human BTLA (human) [6] = target: human BTLA (human) (UniProt Q7Z6A9); experiment: as above

Chain of UniProt Q7Z6A9 (Q7Z6A9 31-157 limits assumed): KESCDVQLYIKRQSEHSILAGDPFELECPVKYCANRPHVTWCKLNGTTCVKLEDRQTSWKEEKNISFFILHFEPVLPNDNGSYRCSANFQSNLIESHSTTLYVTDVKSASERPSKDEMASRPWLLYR

percent of cells in the gate (canine PD-1 (canine) [1]): 0.068% | percent of cells in the gate (human BTLA (human) [2]): 1.2% | percent of cells in the gate (canine PD-1 (canine) [3]): 0.273% | percent of cells in the gate (human BTLA (human) [4]): 0.841% | percent of cells in the gate (canine PD-1 (canine) [5]): 0.155% | percent of cells in the gate (human BTLA (human) [6]): 0.406%
Substance: NC
